This assay addresses T1, FLAG-tagged androgen receptor (AR), P10275.
T1 chain: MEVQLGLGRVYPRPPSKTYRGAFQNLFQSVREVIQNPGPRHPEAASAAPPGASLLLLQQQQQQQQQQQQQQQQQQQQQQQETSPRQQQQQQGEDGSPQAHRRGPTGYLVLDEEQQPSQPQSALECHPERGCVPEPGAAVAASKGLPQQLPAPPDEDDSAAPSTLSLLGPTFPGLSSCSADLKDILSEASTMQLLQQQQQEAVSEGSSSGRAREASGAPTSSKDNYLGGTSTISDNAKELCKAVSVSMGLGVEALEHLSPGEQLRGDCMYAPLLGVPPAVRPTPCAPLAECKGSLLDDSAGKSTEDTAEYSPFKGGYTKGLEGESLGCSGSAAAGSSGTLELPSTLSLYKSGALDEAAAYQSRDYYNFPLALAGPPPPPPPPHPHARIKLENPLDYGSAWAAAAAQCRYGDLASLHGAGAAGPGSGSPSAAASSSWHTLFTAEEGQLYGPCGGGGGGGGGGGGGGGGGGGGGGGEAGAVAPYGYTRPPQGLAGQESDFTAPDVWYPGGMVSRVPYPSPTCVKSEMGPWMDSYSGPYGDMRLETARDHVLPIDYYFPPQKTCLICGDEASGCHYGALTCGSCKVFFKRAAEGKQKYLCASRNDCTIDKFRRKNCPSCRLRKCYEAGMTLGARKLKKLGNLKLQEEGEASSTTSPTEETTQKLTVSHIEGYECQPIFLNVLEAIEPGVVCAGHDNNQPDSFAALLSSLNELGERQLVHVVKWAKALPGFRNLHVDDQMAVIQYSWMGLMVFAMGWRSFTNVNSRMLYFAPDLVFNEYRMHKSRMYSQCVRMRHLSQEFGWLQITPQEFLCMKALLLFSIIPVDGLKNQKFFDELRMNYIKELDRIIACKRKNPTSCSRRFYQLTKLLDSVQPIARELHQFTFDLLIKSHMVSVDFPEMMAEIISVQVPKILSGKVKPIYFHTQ
The experiment in a line: co-immunoprecipitation (Ni-NTA pull-down of His-SREBF1, immunoblot with FLAG antibody), band quantification. As to conditions: chain shown with the change, HEK293T cells.

We go through 1 molecule from article PMC10256812.

B1: His-tagged SREBF1 (wild type), expressed in HEK293T cells, P36956 Y673A; Y951A (protein)
chain: MDEPPFSEAALEQALGEPCDLDAALLTDIEDMLQLINNQDSDFPGLFDPPYAGSGAGGTDPASPDTSSPGSLSPPPATLSSSLEAFLSGPQAAPSPLSPPQPAPTPLKMYPSMPAFSPGPGIKEESVPLSILQTPTPQPLPGALLPQSFPAPAPPQFSSTPVLGYPSPPGGFSTGSPPGNTQQPLPGLPLASPPGVPPVSLHTQVQSVVPQQLLTVTAAPTAAPVTTTVTSQIQQVPVLLQPHFIKADSLLLTAMKTDGATVKAAGLSPLVSGTTVQTGPLPTLVSGGTILATVPLVVDAEKLPINRLAAGSKAPASAQSRGEKRTAHNAIEKRYRSSINDKIIELKDLVVGTEAKLNKSAVLRKAIDYIRFLQHSNQKLKQENLSLRTAVHKSKSLKDLVSACGSGGNTDVLMEGVKTEVEDTLTPPPSDAGSPFQSSPLSLGSRGSGSGGSGSDSEPDSPVFEDSKAKPEQRPSLHSRGMLDRSRLALCTLVFLCLSCNPLASLLGARGLPSPSDTTSVYHSPGRNVLGTESRDGPGWAQWLLPPVVWLLNGLLVLVSLVLLFVYGEPVTRPHSGPAVYFWRHRKQADLDLARGDFAQAAQQLWLALRALGRPLPTSHLDLACSLLWNLIRHLLQRLWVGRWLAGRAGGLQQDCALRVDASASARDAALVAHKLHQLHTMGKHTGGHLTATNLALSALNLAECAGDAVSVATLAEIYVAAALRVKTSLPRALHFLTRFFLSSARQACLAQSGSVPPAMQWLCHPVGHRFFVDGDWSVLSTPWESLYSLAGNPVDPLAQVTQLFREHLLERALNCVTQPNPSPGSADGDKEFSDALGYLQLLNSCSDAAGAPAYSFSISSSMATTTGVDPVAKWWASLTAVVIHWLRRDEEAAERLCPLVEHLPRVLQESERPLPRAALHSFKAARALLGCAKAESGPASLTICEKASGALQDSLATTPASSSIDKAVQLFLCDLLLVVRTSLWRQQQPPAPAPAAQGTSSRPQASALELRGFQRDLSSLRRLAQSFRPAMRRVFLHEATARLMAGASPTRTHQLLDRSLRRRAGPGGKGGAVAELEPRPTRREHAEALLLASCYLPPGFLSAPGQRVGMLAEAARTLEKLGDRRLLHDCQQMLMRLGGGTTVTSS
Consider B1, for which the response by setting is: (+ DHT, parent: 0.9) 3.7; (without DHT, parent: 0.1) 0.3.
